Test system: small intestinal immune cells
Experiment: Droplet-based scRNA-seq of small intestinal immune cells (LP and PP), OVA vs PBS, clustering and differential expression
Format: in vivo, mouse
Conditions: cluster ID 5, PP
Excerpt: To comprehensively characterize small intestinal immune cells, Applicants generated scRNA-Seq profiles for 58,067 immune cells collected from lamina propria (LP) and Peyer's patch (PP) regions at steady state and after induction of a type 2 inflammatory reaction to ovalbumin (OVA) (Brandt et al., 2003) (FIGS. 1A and 8A). To ensure sufficient representation of rare cells, Applicants combined a normalization strategy—removing by flow sorting either a portion of IgD+ naïve B cells, which are the most abundant cell type in PPs, or all CD19+ and CD3+ T cells (FIG. 8B, Methods)—with profiling of a sufficiently large number of cells number (P>0.99 to recover at least 15 cells from each cluster, Methods) by massively parallel scRNA-seq (Haber et al., 2017) (Methods). Applicants obtained 36,797 and 21,270 high quality cells passing initial filtering (Methods) from PP and LP regions, respectively.
Overall, Applicants annotated 27 cell subsets across the two compartments, spanning T cells, B cells, ILCs, dendritic cells (DCs), myeloid cells and stromal cells, in frequencies ranging from 0.07% to 14%. Briefly, Applicants first partitioned the cells from the PP regions by unsupervised clustering (Methods) into 46 clusters, retained the 97% of cells that were robustly assigned cell identities in each cluster (Methods), assigned the cells from the LP regions to the 46 clusters using a classifier (Methods), and visualized the data with scvis (Ding et al., 2018), a deep generative model-based method (FIGS. 1B and 8C, Methods). Next, Applicants identified genes that were differentially expressed between the cells in each cluster and the remaining cells (Table 1, Methods), as well as between pairs of clusters (Table 2), to elucidate identities of similar cell types/states. Applicants excluded from downstream analysis clusters mostly consisting of contaminants from epithelium, likely doublets, or cells with a small number of Unique Molecular Identifiers (UMIs) (FIGS. 1C and 8D), or lacking distinct markers (Methods). Altogether, Applicants retained 27 clusters spanning 85% of the cells and each associated with distinct marker genes (FIG. 8E, Methods).
To induce allergic reaction to OVA, 6 to 7 weeks old mice were sensitized twice, two weeks apart, with 50 μg of OVA plus 1 mg of aluminum potassium sulfate adjuvant via intraperitoneal injection. Two weeks later, mice were orally administered with 50 mg of OVA on every other day for a total of five times. 1 μg of α-CGRP peptide was administered simultaneously when indicated. Mice were deprived of food for 3-4 hours in cages with wood chip bedding for limiting antigen degradation in the stomach before each intragastric challenge.
Isolation of cells from Peyer's patches (PPs). Peyer's patches (PPs) were carefully dissected from the small intestine under a stereo microscope using a fine scissor, pierced once with a fine forcep. Tissues were digested in freshly made digestion buffer (RPMI-1640 containing 100 μg/ml Liberase™ and 50 μg/ml DNase I at 37° C. on a roto-mixer. After 15 min, tissues were very gently mixed using a 1 ml pipette. The supernatant was collected and added to ice-cold MACS buffer (pH 7.4; PBS plus 2% FCS and 2 mM EDTA). Pre-warmed (37° C.) fresh digestion buffer was added to the remaining tissues. After rotation at 37° C. for 15 min, the mixture was vigorously mixed using a 1 ml pipette for 1 min. Supernatants from the two steps were combined and passed through 70 μm filters and stained for FACS (below).
Isolation of cells from the lamina propria (LP). The small intestines were opened longitudinally and washed in ice-cold PBS. For scRNA-seq, roughly 0.5 cm of fragments from each of the distal, middle and proximal regions without visible PPs were collected. Epithelial cells were dissociated by tissue rotation in pre-warmed (37° C.) PBS containing 10 mM EDTA at 37° C. for 15 min, followed by additional incubation on ice for 15 min. Tissues were then shaken vigorously. […]

B1: OVA (protein, UniProt P01012 2-386, looked up)
Ovalbumin: GSIGAASMEFCFDVFKELKVHHANENIFYCPIAIMSALAMVYLGAKDSTRTQINKVVRFDKLPGFGDSIEAQCGTSVNVHSSLRDILNQITKPNDVYSFSLASRLYAEERYPILPEYLQCVKELYRGGLEPINFQTAADQARELINSWVESQTNGIIRNVLQPSSVDSQTAMVLVNAIVFKGLWEKAFKDEDTQAMPFRVTEQESKPVQMMYQIGLFRVASMASEKMKILELPFASGTMSMLVLLPDEVSGLEQLESIINFEKLTEWTSSNVMEERKIKVYLPRMKMEEKYNLTSVLMAMGITDVFSSSANLSGISSAESLKISQAVHAAHAEINEAGREVVGSAEAGVDAASVSEEFRADHPFLFCIKHIATNAVLFFGRCVSP
In the case of B1, the “Calm1: percentage of expressing cells in OVA-treated group” value is reported as 0.868, the “Cd74: percentage of expressing cells in OVA-treated group” value is reported as 0.501 and the “Crlf3: percentage of expressing cells in OVA-treated group” value is reported as 0.569. The “Ctsc: percentage of expressing cells in OVA-treated group” value was 0.268, the “Ddit4: percentage of expressing cells in OVA-treated group” value was 0.369 and the “Dnaja1: percentage of expressing cells in OVA-treated group” value was 0.591. For the same molecule, the “Dnajb1: percentage of expressing cells in OVA-treated group” value was 0.206, the “Dusp1: percentage of expressing cells in OVA-treated group” value was 0.206 and the “DynIl1: percentage of expressing cells in OVA-treated group” value was 0.7. For the same molecule, the “Gramd3: percentage of expressing cells in OVA-treated group” value was 0.475, the “Hspa8: percentage of expressing cells in OVA-treated group” value was 0.977 and the “Ier2: percentage of expressing cells in OVA-treated group” value was 0.428. For the same molecule, the “Ifngr1: percentage of expressing cells in OVA-treated group” value was 0.563, the “Igha: percentage of expressing cells in OVA-treated group” value was 0.197 and the “Il7r: percentage of expressing cells in OVA-treated group” value was 0.48. The “Ilk: percentage of expressing cells in OVA-treated group” value was 0.2, the “Jund: percentage of expressing cells in OVA-treated group” value was 0.654 and the “Klf6: percentage of expressing cells in OVA-treated group” value was 0.368. For the same molecule, the “Klhl6: percentage of expressing cells in OVA-treated group” value was 0.332, the “Lfng: percentage of expressing cells in OVA-treated group” value was 0.333 and the “Ltb: percentage of expressing cells in OVA-treated group” value was 0.865. For the same molecule, the “Pdcd4: percentage of expressing cells in OVA-treated group” value was 0.66, the “Pik3ip1: percentage of expressing cells in OVA-treated group” value was 0.556 and the “Ppp1r15a: percentage of expressing cells in OVA-treated group” value was 0.219. The “Ppp2ca: percentage of expressing cells in OVA-treated group” value was 0.277, the “Ppp3cc: percentage of expressing cells in OVA-treated group” value was 0.152 and the “Racgap1: percentage of expressing cells in OVA-treated group” value was 0.21. The “Rnaset2a: percentage of expressing cells in OVA-treated group” value was 0.709, the “Sfpq: percentage of expressing cells in OVA-treated group” value was 0.284 and the “Slc9a3r1: percentage of expressing cells in OVA-treated group” value was 0.428. For the same molecule, the “Tdrp: percentage of expressing cells in OVA-treated group” value was 0.228, the “Tpm3: percentage of expressing cells in OVA-treated group” value was 0.665 and the “Tsc22d3: percentage of expressing cells in OVA-treated group” value was 0.84. For the same molecule, the “Tuba1a: percentage of expressing cells in OVA-treated group” value was 0.302, the “Txnip: percentage of expressing cells in OVA-treated group” value was 0.605 and the “Uba52: percentage of expressing cells in OVA-treated group” value was 0.984. For the same molecule, the “Ucp2: percentage of expressing cells in OVA-treated group” value was 0.773, the “Wdr89: percentage of expressing cells in OVA-treated group” value was 0.996 and the “Zfp36l2: percentage of expressing cells in OVA-treated group” value was 0.617. For the same molecule, the “1810037l17Rik: LN (average fold change)” value (OVA vs PBS) was −0.158, the “Bcl2: LN (average fold change)” value (OVA vs PBS) was 0.658 and the “Calm1: LN (average fold change)” value (OVA vs PBS) was −0.192. For the same molecule, the “Cd74: LN (average fold change)” value (OVA vs PBS) was −0.211, the “Crlf3: LN (average fold change)” value (OVA vs PBS) was 0.370 and the “Ctsc: LN (average fold change)” value (OVA vs PBS) was 0.402. For the same molecule, the “Ddit4: LN (average fold change)” value (OVA vs PBS) was 0.426, the “Dnaja1: LN (average fold change)” value (OVA vs PBS) was −0.416 and the “Dnajb1: LN (average fold change)” value (OVA vs PBS) was −0.867. For the same molecule, the “Dusp1: LN (average fold change)” value (OVA vs PBS) was −0.321, the “DynIl1: LN (average fold change)” value (OVA vs PBS) was −0.370 and the “Gramd3: LN (average fold change)” value (OVA vs PBS) was 0.481. For the same molecule, the “Hspa8: LN (average fold change)” value (OVA vs PBS) was −0.255, the “Ier2: LN (average fold change)” value (OVA vs PBS) was −0.174 and the “Ifngr1: LN (average fold change)” value (OVA vs PBS) was 0.536. For the same molecule, the “Igha: LN (average fold change)” value (OVA vs PBS) was 0.503, the “Il7r: LN (average fold change)” value (OVA vs PBS) was 0.612 and the “Ilk: LN (average fold change)” value (OVA vs PBS) was 0.159. For the same molecule, the “Jund: LN (average fold change)” value (OVA vs PBS) was −0.319, the “Klf6: LN (average fold change)” value (OVA vs PBS) was −0.374 and the “Klhl6: LN (average fold change)” value (OVA vs PBS) was 0.485. The “Lfng: LN (average fold change)” value (OVA vs PBS) was −0.281, the “Ltb: LN (average fold change)” value (OVA vs PBS) was −0.238 and the “Pdcd4: LN (average fold change)” value (OVA vs PBS) was 0.394. The “Pik3ip1: LN (average fold change)” value (OVA vs PBS) was 0.361, the “Ppp1r15a: LN (average fold change)” value (OVA vs PBS) was −0.287 and the “Ppp2ca: LN (average fold change)” value (OVA vs PBS) was −0.469. For the same molecule, the “Ppp3cc: LN (average fold change)” value (OVA vs PBS) was 0.621, the “Racgap1: LN (average fold change)” value (OVA vs PBS) was 0.436 and the “Rnaset2a: LN (average fold change)” value (OVA vs PBS) was 0.225. For the same molecule, the “Sfpq: LN (average fold change)” value (OVA vs PBS) was −0.373, the “Slc9a3r1: LN (average fold change)” value (OVA vs PBS) was −0.256 and the “Tdrp: LN (average fold change)” value (OVA vs PBS) was −0.354. For the same molecule, the “Tpm3: LN (average fold change)” value (OVA vs PBS) was 0.282, the “Tsc22d3: LN (average fold change)” value (OVA vs PBS) was 0.772 and the “Tuba1a: LN (average fold change)” value (OVA vs PBS) was −0.250.

— patent publication US20220143148A1, “COMPOSITIONS AND METHODS FOR MODULATING CGRP SIGNALING TO REGULATE INTESTINAL INNATE LYMPHOID CELLS” (The Broad Institute, Inc., priority 2019, published 2022)
